The text below walks through data of patent publication US20040048314A1, “Novel physiologically active peptide and use thereof” (priority 2001, published 2004).

Data set [1] addresses human type I5E receptor protein (human) (UniProt Q8NFJ6). The data set can be described thus: cell-based or functional assay. To be noted: scale: times lower level than human type Bv8 peptide.
The next data set concerns the target T1, ZAQ receptor (Homo sapiens, UniProt Q8TCW9).
T1 construct: expressed in transfected cells; host or cells: CHO/dhfr- cells, clone ZAQC-B1 (plasmid pAK-ZAQC)
Nature of the data set: Assay for the ZAQ receptor activating activity (intracellular Ca ion level increasing activity using FLIPR). Format: cell-based. The method, then: The ZAQC-B1 obtained in (2-1) above and the 15E-4 cells obtained in (2-2) above were suspended in a medium (10% d FBS-DMEM), respectively, in 15×10^4 cells/ml and an aliquot of 200 μl was inoculated on a 96-well plate for FLIPR (Black plate clear bottom, Coster, Inc.) using a dispenser (3.0×10^4 cells/200 μl/well). After culturing overnight in a 5% CO2 incubator at 37° C., it was provided for use (hereinafter which was made a cell plate). Twenty milliliters of H/HBSS (9.8 g of Nissui Hanks 2 (Nissui Seiyaku Co., Ltd.), 0.35 g of sodium hydrogencarbonate and 4.77 g of HEPES; the pH was adjusted to 7.4 with 6 M sodium hydroxide solution followed by filter sterilization), 200 μl of 250 mM Probenecid and 200 μl of fetal bovine serum (FBS) were mixed. Also, 2 vials (50 μg) of Fluo 3-AM (Dojin Kagaku Kenkyusho) were dissolved in 40 μl of dimethylsulfoxide and 40 μl of 20% Pluronic acid (Molecular Probes Co., Ltd.). The solution was added to H/HBSS-Probenecid-FBS described above. After thoroughly mixing them, an aliquot of 100 μl was added to the medium-removed cell plate using an 8-channel pipette, followed by incubation in a 5% CO2 incubator at 37° C. for an hour (dye loading). […] By assaying a change in fluorescence intensity with passage of time, the intracellular Ca ion level increasing activity was measured. […]

Another data set has as its system guinea pig ileum. The data set can be described thus: Experiment on contraction using specimen removed from guinea pig ileum. To be noted: for EC50: guinea pig ileum specimen, contraction induced by 1 μM acetylcholine taken as 100%, accumulative administration, read-out: EC50 of contraction response calculated from the dose-response curve. How it is done: Guinea pigs (std: Hartley, 7-8 weeks old, male, weighing about 450 g) weres bled to death by cutting the carotid artery and laparotomized to remove the ileum. The ileum was placed on a glass Petri dish charged with Tyrode solution (composition: 138 mM NaCl, 2.7 mM KCl, 1.8 mM CaCl2, 0.5 mM MgCl2, 1.1 mM NaH2PO4, 11.9 mM NaHCO3 and 5.6 mM glucose), which was bubbled with 95% O2-5% CO2 gas. After connective tissues or fat pieces adhered to the ileum were removed with scissors for surgery and tweezers, the ileum was cut into a size of about 1.5 cm long, which was used as specimen. The specimen was suspended in an organ bath (20 ml) filled with the Tyrode solution maintained at 37° C. and a load of 0.5 g was applied over 30 minutes or longer to stabilize the specimen. Contraction response of the ileum specimen was measured using AMPLIFIER CASE 7747 of NEC Sanei. After determination of the maximum contraction by administration of 1 μM acetylcholine, purified human type Bv8 peptide obtained by the method of REFERENCE EXAMPLE 1 with a modification or snake venom MIT1 was accumulatively administered to assay the contraction response. For dilution of human type Bv8 and MIT1, physiological saline containing 0.05% bovine serum albumin was employed.
The contraction response induced by human type Bv8 and MIT1 was shown by percentage, taking the contraction induced by 1 μM acetylcholine as 100%.

The subject of the next data set is MAP kinase. As to conditions: cited from earlier work.
The subject of another data set is PI-3 kinase. As to conditions: cited from earlier work.
The target in another data set is T2, I5E receptor (Homo sapiens, UniProt Q8NFJ6).
T2 construct: expressed in transfected cells; host or cells: CHO/dhfr- cells, clone No. 4 (I5E-4 cells), vector pAKKO1.11
T2 sequence (Q8NFJ6 whole entry): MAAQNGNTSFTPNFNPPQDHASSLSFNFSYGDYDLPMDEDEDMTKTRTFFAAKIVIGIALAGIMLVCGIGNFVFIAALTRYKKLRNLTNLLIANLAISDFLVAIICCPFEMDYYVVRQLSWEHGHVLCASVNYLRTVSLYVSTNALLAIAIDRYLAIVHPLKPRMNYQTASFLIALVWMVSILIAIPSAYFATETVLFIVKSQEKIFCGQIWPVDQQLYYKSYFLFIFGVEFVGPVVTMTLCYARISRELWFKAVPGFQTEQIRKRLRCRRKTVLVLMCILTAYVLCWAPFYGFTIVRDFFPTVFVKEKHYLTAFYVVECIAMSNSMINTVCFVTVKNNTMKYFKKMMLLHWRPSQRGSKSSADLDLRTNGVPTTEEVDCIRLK
Nature of the data set: Assay for the I5E receptor activating activity (intracellular Ca ion level increasing activity using FLIPR). To be noted: I5E receptor expression CHO cells. Format: cell-based. From the text: Human I5E receptor cDNA (SEQ ID NO: 6) was cloned by PCR publicly known and incorporated into pAKKO1.11 expression vector. The expression vector was transfected to CHO/dhfr^− cells (American Type Culture Collection) by the method described in (2-1). About 20 colonies of the transfected CHO cells, which grew in 8 to 10 days after the initiation of culture, were selected. The selected cells were inoculated on a 96-well plate in 3×10^4 cells/well, and the reactivity on snake venom MIT1 (SEQ ID NO: 21) was examined by the test method described in (2-3) described hereinafter. No. 4 clone of the 15E-expressing CHO cells showing a good reactivity was selected (hereinafter abbreviated as 15E-4 cells).
The ZAQC-B1 obtained in (2-1) above and the 15E-4 cells obtained in (2-2) above were suspended in a medium (10% d FBS-DMEM), respectively, in 15×10^4 cells/ml and an aliquot of 200 μl was inoculated on a 96-well plate for FLIPR (Black plate clear bottom, Coster, Inc.) using a dispenser (3.0×10^4 cells/200 μl/well). After culturing overnight in a 5% CO2 incubator at 37° C., it was provided for use (hereinafter which was made a cell plate). […] By assaying a change in fluorescence intensity with passage of time, the intracellular Ca ion level increasing activity was measured. […]

The subject of data set [2] is ileum, distal colon, proximal colon. To be noted: cited from earlier work.

T1 sequence (Q8TCW9 whole entry): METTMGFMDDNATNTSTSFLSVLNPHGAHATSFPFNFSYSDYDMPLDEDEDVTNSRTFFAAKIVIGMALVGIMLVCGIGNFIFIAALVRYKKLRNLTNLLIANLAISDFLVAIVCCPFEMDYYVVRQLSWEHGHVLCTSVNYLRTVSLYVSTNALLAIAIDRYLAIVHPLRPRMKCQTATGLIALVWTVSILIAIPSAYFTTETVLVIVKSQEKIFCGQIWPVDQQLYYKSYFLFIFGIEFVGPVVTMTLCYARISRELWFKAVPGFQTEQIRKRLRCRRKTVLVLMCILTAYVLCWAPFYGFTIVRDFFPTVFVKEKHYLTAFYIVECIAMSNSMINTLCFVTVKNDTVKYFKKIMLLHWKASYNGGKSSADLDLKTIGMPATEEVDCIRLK
Chain of human type I5E receptor protein (human) (Q8NFJ6 whole entry): as the sequence (Q8NFJ6 whole entry) above

On to “snake venom Mamba Intestinal Toxin 1 (from UniProt P25687 1-80) (ligand)”, for which, in data set [1], the I5E receptor activating activity (intracellular calcium level, FLIPR) came out at 10.

B1: human type Bv8: Human type Bv8 mature peptide (81 amino acid residues, SEQ ID NO: 19) produced in Escherichia coli, … EXAMPLE 1 (protein)
chain: AVITGACDKDSQCGGGMCCAVSIWVKSIRICTPMGKLGDSCHPLTRKVPFFGRRMHHTCPCLPGLACLRTSFNRFICLAQ
Consider B1, for which the “intracellular Ca ion level increasing activity using FLIPR, compared with CHO cell-derived recombinant preparation” value with ZAQ receptor (method of EXAMPLE 2 (2-3), receptor cell line not specified) was “equivalent to that of the CHO cell-derived recombinant preparation”. Also, the “intestinal tract contractile activity” value with guinea pig ileum (as described in EXAMPLES) is on record as “has an intestinal tract contractile activity”. Moreover, the EC50 (usually the concentration needed to bring the measured effect to its halfway point) with guinea pig ileum was 0.57 nM. Besides, the MAP kinase activation entry with MAP kinase is listed as “activates”. In the data set with PI-3 kinase, the PI-3 kinase activation result was “activates”.

B2: human type Bv8 peptide: Human type Bv8 purified from CHO cell culture supernatant (EXAMPLE 3); C-terminal Lys-deficient mature peptide, SEQ ID NO: 22 (protein)
chain: AVITGACDKDSQCGGGMCCAVSIWVKSIRICTPMGKLGDSCHPLTRKVPFFGRRMHHTCPCLPGLACLRTSFNRFICLAQ
modifications: Human
B2: in the data set with ZAQ receptor (ZAQ receptor expression CHO cells, FLIPR, FIG. 9), the “ZAQ receptor activating activity (intracellular calcium level)” value is “induced the intracellular calcium level concentration-dependently”. Also, the “I5E receptor activating activity (intracellular calcium level)” value with I5E receptor (FLIPR, FIG. 10) is on record as “induced the intracellular calcium level concentration-dependently”.

B3: MIT1 (protein)
chain: AVITGACERDLQCGKGTCCAVSLWIKSVRVCTPVGTSGEDCHPASHKIPFSGQRMHHTCPCAPNLACVQTSPKKFKCLSK
With B3, the “level from which I5E receptor activating activity is exhibited, lower than that of human type Bv8 peptide” value with I5E receptor (relative to human type Bv8 peptide) is “about 10 times”. Further, the EC50 with guinea pig ileum is 0.4 nM. Besides, in data set [2] (compared with potassium chloride), the degree of contraction/relaxation result was “as potent as comparable to 40 mM potassium chloride”. The “contraction or relaxation of intestinal tract” value in data set [2] (ileum, distal colon, proximal colon) is “induced contraction in the ileum or distal colon, or relaxation in the proximal colon”.
